Substrate in assay [1]: CB-PB phycobilisome (truncated phycobilisome of the CB mutant of Synechocystis PCC 6803) (Synechocystis PCC 6803) (UniProt Q01951)
Substrate in assay [2]: CB-PB phycobilisome (truncated phycobilisome of the CB mutant of Synechocystis PCC 6803) (Synechocystis PCC 6803) (UniProt Q01951)
The source holds these as a separate data set.

Substrate in assay [3]: CB-PB phycobilisome (truncated phycobilisome of the CB mutant of Synechocystis PCC 6803) (Synechocystis PCC 6803) (UniProt Q01951)
Briefly: bulk fluorescence quenching (emission spectrum and lifetime decay); OCP:CB-PB 40:1 in 0.8 M phosphate buffer, illuminated with white light 10 min at 23 °C; bulk sample ~25 nM.

Compound in assay [4]: CB-PB phycobilisome (truncated phycobilisome of the CB mutant of Synechocystis PCC 6803) (Synechocystis PCC 6803) (UniProt Q01951)
Briefly: ABEL trap single-molecule fluorescence spectroscopy; pre-activated and pre-bound OCP + CB-PB (40:1) diluted to ~10 pM in 0.8 M phosphate buffer pH 7.5 with 1 M sucrose; single complexes in free solution; followed up to 5 h after dilution.

Broadly, the stoichiometry N is the number of molecules, sites or subunits per partner or assembly.

B1: Orange Carotenoid Protein, photoactivated red form (OCP^R) (natural protein)
chain: MPFTIDSARGIFPNTLAADVVPATIARFSQLNAEDQLALIWFAYLEMGKTLTIAAPGAASMQLAENALKEIQAMGPLQQTQAMCDLANRADTPLCRTYASWSPNIKLGFWYRLGELMEQGFVAPIPAGYQLSANANAVLATIQGLESGQQITVLRNAVVDMGFTAGKDGKRIAEPVVPPQDTASRTKVSIEGVTNATVLNYMDNLNANDFDTLIELFTSDGALQPPFQRPIVGKENVLRFFREECQNLKLIPERGVTEPAEDGFTQIKVTGKVQTPWFGGNVGMNIAWRFLLNPEGKIFFVAIDLLASPKELLNFA
As for B1, in assay [1], the bulk fluorescence emission of fully quenched OCP + CB-PB (40:1) relative to unquenched CB-PB was determined as 9% and the bulk fluorescence lifetime, shorter component of the quenched OCP + CB-PB complex (unquenched 1.6 ns) was 0.1 ns. For the same molecule, in assay [2], the brightness of quenched state Q1 relative to unquenched CB-PB was 11% and the brightness of quenched state Q2 relative to unquenched CB-PB is 6%. The percent of complexes quenched in assay [3] was above 95%. In addition, the stoichiometry N in assay [4] amounted to 2.
